Numbering of substitutions follows the chain as printed.
B1: humanized anti-E-selectin antibody 0841 (antibody, human IgG1, kappa, V domains shown)
VH: EVQLVESGGGLVQPGGSLRLSCAASGYNIRSSYMHWVRQAPGKGLEWVARIDPANGNTIYAEKFKIRFTISADNAKNSAYLQMNSLRAEDTAVYYCAMDLYSTSEYWGQGTLVTVSS
VL: DIQMTQSPSSLSASVGDRVTITCKTSQNINRYLNWYQQKPGKAPKLLIYNANSLQTGVPSRFSGSGSGTDFTLTISSLQPEDFATYFCLQDNSWPLTFGQGTKVEIKR
notes: effector-null human IgG1, kappa
B2: optimized anti-E-selectin antibody 1282 (antibody, human IgG1, kappa, V domains shown)
VH: B1 VH with N28A, S32A, A61V, E62D, K63S, F64V, K65E, I66G
VL: B1 VL with N30E, N50A, N52S, T56S, S93A
notes: as for B1
B3: optimized anti-E-selectin antibody 1444 (antibody, human IgG1, kappa, V domains shown)
VH: B1 VH with N28A, S32A, A61V, E62D, K63S, F64V, K65T, I66G
VL: B1 VL with N30E, N50A, N52S, T56S, S93A
notes: as for B1
B4: optimized anti-E-selectin antibody 1284 (antibody, human IgG1, kappa, V domains shown)
VH: B1 VH with N28A, S32A, A61V, K63S, F64V, K65E, I66G
VL: B1 VL with N30E, N50A, N52S, T56S, S93A
notes: as for B1
B5: optimized anti-E-selectin antibody 1448 (antibody, human IgG1, kappa, V domains shown)
VH: B1 VH with N28A, S32A, A61V, E62D, K63S, F64V, I66E
VL: B1 VL with N30E, N50A, N52S, T56S, S93A
notes: as for B1
B6: anti-E-selectin antibody 0159 chimera (antibody, human IgG1, kappa, V domains shown)
VH: EVQLQQSGAELGKPGTSVKLSCKVSGYNIRSTYMHWVSQRPGKGLEWIGRIDPANGNTIYAEKFKRKATLTADTSSNTAYMQLSQLKSDDRAIYFCAMEVRVSFEYWGQGVMVTVSS
VL: DIQMTQSPSFLSASVGDRVTINCKASQNINKYLDWYQQKLGEGPKLLIYYTNNLHTGIPSRFSGSGSGTDFTLTISSLQPEDVATYFCLQHDSGYTFGAGTKLELKR
notes: rat VH/VL on effector-null human IgG1 and human kappa
B7: anti-E-selectin antibody 0170 chimera (antibody, human IgG1, kappa, V domains shown)
VH: EVQLQQSGAELGKPGTSVKLSCKVSGYSIRSTYMHWVNQRPGKGLEWVGRIDPANGNTIYAERFKNKATLTADTSSNTAYMQLSQLKSDDTAIYFCAVEILGIFDYWGQGVMVTVSS
VL: B6 VL with N30D, G43A, I48M, Y50N, N53S, D92N
notes: as for B6
B8: anti-E-selectin antibody 0039 chimera (antibody, human IgG1, kappa, V domains shown)
VH: QVQLKETGPGLVQPTQTLSITCTVSGFSLTGYYMQWVRQTPGKGLEWMGFIRSSGSTEYNSEFKSRLSISRDTSKNQVFLKMNSLKTEDTGVYYCARCPYKYSSFVYVGVMDAWGQGAPVTVSS
VL: EIVMTQSPTSMSTSIGERVTLNCKASQTVGINVDWYQQTPGQPPKLLIYGASNRHTGVPDRFTGSGFGRDFTLTISNVEAEDLAVYCCLQYGSIPHTFGPGTKLELKR
notes: as for B6
B9: anti-E-selectin antibody 0180 chimera (antibody, human IgG1, kappa, V domains shown)
VH: EVQLQQSGAELGKPGTSVKLSCKVSGYKIRSSYMHWVNQRPGKGLEWIGRIDPANGNTIYGDKFKSKATLTSDTSSNTAYIQLSQLKSDDTAIYFCAIDIGTTFDYWGQGVMVTVSS
VL: DIQMTQSPSFLSASVGDRVTINCKASQHINRYLNWYQQKLGEAPKLLIYDANNLQTGIPSRFSGSGSGTDFTLTISSLQPEDVATYFCLQHNSWPNTFGAGTKLELKR
notes: as for B6
B10: anti-E-selectin antibody 0164 chimera (antibody, human IgG1, kappa, V domains shown)
VH: EVQLQQSGAEFGKPGTSVKLSCKVSGYNIRSSYMHWVNQRPGKGLEWIGRIDPANGNTIYAEKFKIKAILTADSSSNTAYMQLSQLKSDDTAIYFCAMDLYSTSEYWGQGVMVTVSS
VL: B9 VL with A25T, H28N, D50N, N53S, G64A, S76N, H91D, N96L, A100S, L106I
notes: as for B6

Each binder was assayed against T1, soluble recombinant human P-selectin (human, UniProt P16109 42-771, limits assumed) (assay: direct binding ELISA on immobilized human P-selectin, absorbance at 450 nm).
T1 sequence (looked up): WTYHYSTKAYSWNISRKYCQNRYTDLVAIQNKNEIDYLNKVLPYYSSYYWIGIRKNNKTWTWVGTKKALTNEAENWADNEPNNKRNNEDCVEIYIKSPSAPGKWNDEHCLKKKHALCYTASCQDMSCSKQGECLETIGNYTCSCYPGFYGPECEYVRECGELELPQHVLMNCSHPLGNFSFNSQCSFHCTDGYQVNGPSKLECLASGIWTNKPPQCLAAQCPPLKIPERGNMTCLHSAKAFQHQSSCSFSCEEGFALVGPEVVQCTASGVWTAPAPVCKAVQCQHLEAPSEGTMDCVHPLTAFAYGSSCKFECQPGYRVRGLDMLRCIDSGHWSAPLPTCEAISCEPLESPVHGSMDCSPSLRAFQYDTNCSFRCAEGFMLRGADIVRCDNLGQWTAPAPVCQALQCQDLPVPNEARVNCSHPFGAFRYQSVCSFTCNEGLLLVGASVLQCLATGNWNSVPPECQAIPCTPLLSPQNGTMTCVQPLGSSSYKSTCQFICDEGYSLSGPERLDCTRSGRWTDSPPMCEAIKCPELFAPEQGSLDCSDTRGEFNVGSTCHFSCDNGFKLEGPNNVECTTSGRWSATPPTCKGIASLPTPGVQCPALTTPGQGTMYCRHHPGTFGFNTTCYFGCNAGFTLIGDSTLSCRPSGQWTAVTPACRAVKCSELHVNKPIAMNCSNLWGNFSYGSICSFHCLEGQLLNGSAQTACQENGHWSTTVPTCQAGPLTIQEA
Procedure: Recombinant histidine tagged human P-, E- or L-selectin (Sino Biologicals), mouse E-selectin (Sino Biologicals), rat E-selectin (Sino Biologicals) and Cynomolgus monkey E-selectin (Sino Biologicals) stock solutions were prepared to a final concentration of 1 μg/mL in phosphate buffered saline without calcium and magnesium. Controls included an L-selectin directed antibody (BioLegend; 304811) or P-selectin directed antibody or a negative control IgG. One hundred μL per well of the diluted recombinant selectin proteins were added into a Ni-NTA HisSorb 96 well plate (Qiagen; 35061). Plates were incubated on an orbital shaker at room temperature for 2 hours. Following the incubation, the plates were washed 3 times with 200 μL of wash buffer (50 mM TRIS [trisaminomethane]; 150 mM sodium chloride; 0.05% polysorbate 20, pH 7.4). To decrease nonspecific binding, plates were treated with 200 μL of blocking buffer (BD Opteia buffer; 555213; BD Biosciences), incubated on an orbital shaker for 1 hour at room temperature and washed as described above. […] One hundred μL specific detection antibodies (described below) were added and incubated for 1 hour: [0556] […] Anti L-selectin and anti-rat-E-selectin antibodies were detected using 1 to 25000 dilution of Peroxidase-conjugated AffiniPure Goat Anti-Mouse IgG (H+L); (Jackson ImnnunoResearch Lab).
Plates were washed and 100 μL per well of 1-Step Ultra TMB substrate (Thermo Scientific) was added and incubated for 5 minutes at room temperature. Reactions were stopped with 100 μL of 2 M sulfuric acid and absorbance read at 450 nm (Spectramax M5e).

| Binder | binding result |
| --- | --- |
| B1 | no binding (tested: 10 ug/ml) |
| B2 | no binding (tested: 10 ug/ml) |
| B3 | no binding (tested: 10 ug/ml) |
| B4 | no binding (tested: 10 ug/ml) |
| B5 | no binding (tested: 10 ug/ml) |

Target: T2, cynomolgus monkey E-selectin extracellular domain with 10 His purification tail (cynomolgus monkey, UniProt P16581 22-554 (human entry))
T2 construct: also called cynomolgus E-selectin; truncated cynomolgus monkey E-selectin
T2 chain: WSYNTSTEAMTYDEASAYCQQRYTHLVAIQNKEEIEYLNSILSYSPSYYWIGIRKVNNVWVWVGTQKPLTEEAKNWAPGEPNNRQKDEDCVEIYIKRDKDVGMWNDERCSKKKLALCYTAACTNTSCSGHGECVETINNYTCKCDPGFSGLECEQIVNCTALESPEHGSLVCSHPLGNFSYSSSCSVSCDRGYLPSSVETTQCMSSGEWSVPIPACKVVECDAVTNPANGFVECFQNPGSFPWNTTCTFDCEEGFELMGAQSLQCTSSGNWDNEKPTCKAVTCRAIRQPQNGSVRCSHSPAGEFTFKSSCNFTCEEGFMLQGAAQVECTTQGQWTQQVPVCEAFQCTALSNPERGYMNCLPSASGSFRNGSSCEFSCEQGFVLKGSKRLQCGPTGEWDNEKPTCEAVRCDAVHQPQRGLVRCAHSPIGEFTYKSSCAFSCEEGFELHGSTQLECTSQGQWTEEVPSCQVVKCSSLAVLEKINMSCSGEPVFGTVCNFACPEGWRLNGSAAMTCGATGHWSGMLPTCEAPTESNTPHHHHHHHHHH
Assay: SPR, antibody captured, E-selectin analyte
Procedure: To characterize binding of antibodies to human, cynomolgus monkey, and mouse E-selectin, an antibody was diluted to 0.5 μg/mL in HBS-EP+ and captured by the anti-human IgG immobilized on flow cells 2, 3 and 4 for 30 seconds to 1 minute at a flow rate of 10 μL/minute to achieve a capture level of 70 to 300 RU. Flow cell 1 was used as a reference surface. […] HBS-EP+ buffer cycles collected for each captured antibody were used for double-referencing (Myszka D G. J. Mol. Recognition 1999; 12(5):279-84). At the end of each cycle, the entire anti-IgG surface was regenerated by a 30 second pulse of 3 M MgCl₂ and a 30 second pulse of ionic buffer (1.83 M MgCl₂, 0.92 M Urea, 1.83 M Guanidine HCl, pH 7.4) (Andersson K. Analy. Chem. 1999; 71(13): 2475-81). Kinetic assays were conducted at 25° C. at a collection rate of 10 Hertz (Hz) on a BIAcore™ T200 instrument (GE Healthcare). Rate constants and affinities were determined by fitting the data to a 1:1 binding model in BIAcore™ T200 Evaluation software version 3.0 (GE Healthcare).

| Binder | Kd [nM] | koff [s⁻¹] | kon [M⁻¹ s⁻¹] | t½ [s] |
| --- | --- | --- | --- | --- |
| B6 | 244 | 0.0374 | 154000 | 18.5 |
| B7 | 492 | 0.0564 | 115000 | 12.3 |
| B8 | 45.8 | 0.00377 | 82400 | 184 |
| B9 | 3140 | 0.749 | 245000 | 0.93 |
| B10 | 45.4 | 0.012 | 265000 | 57.8 |
